Data: article PMC8020760, “Assembly of a dsRNA synthesizing complex: RNA-DEPENDENT RNA POLYMERASE 2 contacts the largest subunit of NUCLEAR RNA POLYMERASE IV” (Proceedings of the National Academy of Sciences of the …, 2021)

B1: recombinant NRPD1_(1–300) with His and FLAG tags, made in E. coli (domain or fragment, A. thaliana, UniProt Q9LQ02 1-300, looked up)
chain: MEDDCEELQVPVGTLTSIGFSISNNNDRDKMSVLEVEAPNQVTDSRLGLPNPDSVCRTCGSKDRKVCEGHFGVINFAYSIINPYFLKEVAALLNKICPGCKYIRKKQFQITEDQPERCRYCTLNTGYPLMKFRVTTKEVFRRSGIVVEVNEESLMKLKKRGVLTLPPDYWSFLPQDSNIDESCLKPTRRIITHAQVYALLLGIDQRLIKKDIPMFNSLGLTSFPVTPNGYRVTEIVHQFNGARLIFDERTRIYKKLVGFEGNTLELSSRVMECMQYSRLFSETVSSSKDSANPYQKKSDT
notes: NRPD1, A. thaliana, amino acids 1-300 of 1,453; More in SI Appendix, Methods; also called NRPD1_(1–300)-FLAG; FLAG-tagged NRPD1_(1–300); source: E. coli (pET28 vector), purified (nickel-NTA by the methods; by its C-terminal FLAG tag by the results); not shown: FLAG, C-terminal, kept
B2: recombinant RDR2_(771–970) with His and HA tags, made in E. coli (domain or fragment, A. thaliana, UniProt O82504 771-970, looked up)
chain: ETSVVIGKVVVTKNPCLHPGDIRVLDAIYEVHFEEKGYLDCIIFPQKGERPHPNECSGGDLDGDQFFVSWDEKIIPSEMDPPMDYAGSRPRLMDHDVTLEEIHKFFVDYMISDTLGVISTAHLVHADRDPEKARSQKCLELANLHSRAVDFAKTGAPAEMPYALKPREFPDFLERFEKPTYISESVFGKLYRAVKSSLAQ
notes: The methods give the C-terminal limit as 971, the results and legends as 970; More in SI Appendix, Methods; source: E. coli (pET28 vector), purified (nickel-NTA by the methods; anti-HA resin by the results)
B3: NRPD1 peptide 9 of the NRPD1_(1–300) peptide array (peptide, UniProt Q9LQ02 81-95, looked up)
peptide: INPYFLKEVAALLNK
notes: NRPD1, A. thaliana; 15-mer of the array of 30 peptides over 1-300 that overlap by 5; limits worked out from the design; Peptides were 'typically' 15 amino acids long; source: synthetic peptide (Genscript)
B4: NRPD1 peptide 24 of the NRPD1_(1–300) peptide array (peptide, UniProt Q9LQ02 231-245, looked up)
peptide: RVTEIVHQFNGARLI
notes: NRPD1, A. thaliana; 15-mer of the array; limits worked out from the design; Peptides were 'typically' 15 amino acids long; source: synthetic peptide (Genscript)
B5: NRPD1 peptide 12 of the NRPD1_(1–300) peptide array (peptide, UniProt Q9LQ02 111-125, looked up)
peptide: TEDQPERCRYCTLNT
notes: NRPD1, A. thaliana; 15-mer of the array; limits worked out from the design; holds a CxxC motif; Peptides were 'typically' 15 amino acids long; source: synthetic peptide (Genscript)
B6: NRPD1 peptide 26 of the NRPD1_(1–300) peptide array (peptide, UniProt Q9LQ02 251-265, looked up)
peptide: RIYKKLVGFEGNTLE
notes: NRPD1, A. thaliana; 15-mer of the array; limits worked out from the design; holds K254 and K255; Peptides were 'typically' 15 amino acids long; source: synthetic peptide (Genscript)
B7: NRPD1 peptide 10 of the NRPD1_(1–300) peptide array (peptide, UniProt Q9LQ02 91-105, looked up)
peptide: ALLNKICPGCKYIRK
notes: as for B5
B8: NRPD1 peptide 13 of the NRPD1_(1–300) peptide array (peptide, UniProt Q9LQ02 121-135, looked up)
peptide: CTLNTGYPLMKFRVT
notes: NRPD1, A. thaliana; 15-mer of the array; limits worked out from the design; holds K131; Peptides were 'typically' 15 amino acids long; source: synthetic peptide (Genscript)
B9: NRPD1 peptide 25 of the NRPD1_(1–300) peptide array (peptide, UniProt Q9LQ02 241-255, looked up)
peptide: GARLIFDERTRIYKK
notes: as for B6
B10: RDR2 peptide 11 of the RDR2_(771–970) peptide array (peptide, UniProt O82504 871-885, looked up)
peptide: EIHKFFVDYMISDTL
notes: RDR2, A. thaliana; 15-mer of the array; limits worked out from the design; holds K874; Peptides were 'typically' 15 amino acids long; source: synthetic peptide (Genscript)
B11: RDR2 peptide 10 of the RDR2_(771–970) peptide array (peptide, UniProt O82504 861-875, looked up)
peptide: RLMDHDVTLEEIHKF
notes: as for B10
B12: RDR2 peptide 12 of the RDR2_(771–970) peptide array (peptide, UniProt O82504 881-895, looked up)
peptide: ISDTLGVISTAHLVH
notes: RDR2, A. thaliana; 15-mer of the array; limits worked out from the design; Peptides were 'typically' 15 amino acids long; source: synthetic peptide (Genscript)

biological target: T1, recombinant RNA-DEPENDENT RNA POLYMERASE 2 (RDR2), wild type, with N-terminal V5 epitope and 6xHis tags (A. thaliana, UniProt O82504 1-1133); experiment: co-IP; purified recombinant proteins, 0.25 µM each, 30 min, room temperature, 50 mM Hepes-KOH pH 7.5, 150 mM NaCl; IP with resin against the tag of one or the other partner (anti-FLAG, anti-V5 or anti-HA); immunoblot; conditions: both partners purified
T1 sequence (looked up): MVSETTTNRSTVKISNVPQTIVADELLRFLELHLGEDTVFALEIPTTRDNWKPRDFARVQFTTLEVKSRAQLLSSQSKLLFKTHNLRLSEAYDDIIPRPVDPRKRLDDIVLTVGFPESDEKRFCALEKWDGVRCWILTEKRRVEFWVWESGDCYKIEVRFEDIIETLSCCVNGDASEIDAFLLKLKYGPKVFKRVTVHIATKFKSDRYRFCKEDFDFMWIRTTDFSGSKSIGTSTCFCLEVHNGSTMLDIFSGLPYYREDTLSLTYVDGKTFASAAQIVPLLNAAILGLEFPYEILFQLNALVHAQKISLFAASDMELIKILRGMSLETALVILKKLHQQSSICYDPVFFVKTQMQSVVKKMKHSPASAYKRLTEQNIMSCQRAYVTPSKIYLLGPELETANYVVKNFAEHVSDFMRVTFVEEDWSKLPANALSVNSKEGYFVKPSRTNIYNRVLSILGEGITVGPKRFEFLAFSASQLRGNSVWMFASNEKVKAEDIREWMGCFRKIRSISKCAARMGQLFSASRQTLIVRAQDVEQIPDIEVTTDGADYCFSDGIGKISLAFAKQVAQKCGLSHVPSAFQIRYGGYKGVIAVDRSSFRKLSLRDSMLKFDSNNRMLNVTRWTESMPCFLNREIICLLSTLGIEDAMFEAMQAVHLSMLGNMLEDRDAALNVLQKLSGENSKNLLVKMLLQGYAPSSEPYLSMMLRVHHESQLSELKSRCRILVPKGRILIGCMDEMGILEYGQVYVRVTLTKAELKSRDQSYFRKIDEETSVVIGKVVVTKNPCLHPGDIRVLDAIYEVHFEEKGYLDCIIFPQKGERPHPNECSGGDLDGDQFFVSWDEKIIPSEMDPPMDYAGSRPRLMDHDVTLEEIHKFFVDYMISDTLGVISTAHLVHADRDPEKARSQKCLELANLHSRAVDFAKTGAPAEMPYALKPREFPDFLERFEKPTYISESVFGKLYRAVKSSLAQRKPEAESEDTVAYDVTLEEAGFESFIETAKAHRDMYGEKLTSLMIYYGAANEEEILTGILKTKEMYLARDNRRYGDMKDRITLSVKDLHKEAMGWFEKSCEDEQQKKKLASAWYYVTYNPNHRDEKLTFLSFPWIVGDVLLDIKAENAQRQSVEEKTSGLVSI

Binding result, binds:
B1

biological target: B1; experiment: as above; conditions: both partners purified

Binding result, binds:
B2

biological target: B2; experiment: peptide or protein array; synthetic peptides (10 ng) dot-blotted onto nitrocellulose, probed with about 200 ng NRPD1_(1–300)-FLAG or RDR2_(771–970)-HA in 8 mL 50 mM Hepes-KOH pH 7.5, 100 mM NaCl, room temperature, 1 h; anti-FLAG-HRP or anti-HA-HRP, chemiluminescence; conditions: both partners purified

Binding result, binds:
B3
B4
B5
B6
B7
B8
B9

biological target: B1; experiment: as above; conditions: both partners purified

Binding result, binds:
B10
B11
B12
